Here are results for four molecules from patent US20170058036A1 (published 2017).

Broadly, the Kd is the free concentration of one partner at which half of the binding sites on the other are occupied at equilibrium, for simple one-to-one binding. As usually defined, the EC50 is the concentration that produces a half-maximal response.

Experiment [1] deals with T1, human dual endothelin-1/VEGF signal peptide receptor (DEspR) on intact cells (human, UniProt B0L3A2 1-85).
T1 construct: also called hDEspR; DEAR
T1 sequence: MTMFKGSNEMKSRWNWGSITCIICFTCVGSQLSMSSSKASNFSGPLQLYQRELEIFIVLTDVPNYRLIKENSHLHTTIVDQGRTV
Description: saturation binding of AF568-labelled mAb to DEspR+ Panc1 cells, FACS. The procedure: Saturation binding curves of monoclonal antibody (mAb) binding to DEspR on Panc1 CSCs. […] Specific binding was determined by FACS analysis using 100,000 cells in 0.25 ml containing increasing concentrations of mAbs. Incubations were done at 4° C. for 20 min and immediately subjected to FACS analysis on a BDTM LSRII Flow cytometer. Each data point was performed in duplicate.
Fully human VH5/VK1 has a slightly better Kd than VH3/VK2 fully human composite antibodies. […] (FIG. 16).

The target of experiment [2] is T1, human dual endothelin-1/VEGF signal …. In words: FACS, AF-568-labeled mAb on Panc1 cells. Here is the method: (§1) Binding was quantified by FACS with corresponding isotype labeled antibodies as background controls. […] Furthermore, 6G8 humanized monoclonal antibodies were developed using two different human IgG Fc regions-human IgG1 and hinge-stabilized human IgG4, thus affirming high-affinity binding.
(§2) Neutrophils (50000/well) were incubated in the absence or presence of mAbs at 37° C. × 4 hrs and live cells counted by using Trypan blue. HUVEC-dependent angiogenesis (20,000 cells/well) was performed as described in the presence or absence of mAbs. Number of polygons and number of branch points were determined after 14 hrs of incubation at 37° C. ND, not done, indeterminate, value greater than upper limit of max dose used in these experiments.
On the technique in general: A flow cytometer gives signals particle by particle.

The target in experiment [3] is rat DEspR on rat neutrophils (rat). Description: cell-based or functional assay.
Experiment [4] deals with T1, human dual endothelin-1/VEGF signal …. In words: FACS, binding to DEspR on intact human cells at 4° C. Here is the method:
as §1
Binding was determined by FACS analysis.
as §2

The target in experiment [5] is rat DEspR on rat neutrophils (rat). Description: cell-based or functional assay. The source holds these as a separate data set.

B1: 7C5B2 murine anti-human DEspR monoclonal antibody (antibody, V domains shown)
VH: QVQLKESGPGLVAPSQSLSITCTVSGFSLKSYAVSWVRQPPGKGLEWLGVIWGDGSTDYHSALISRLSISKDNSKSQFFLRLNSLQTDDTATYYCARGTGTGFAYWGQGTLVTVSA
VL: DVVMTQTPLSLPVSLGDQASISCRSSQSLVHSNGNTYLHWYLQKPGQSPKLLIYKVSNRFSGVPDRFSGSGSGTDFTLKISRVEAEDLGIYFCSQCTHIPWTFGGGTNLEIK
notes: Murine hybridoma antibody raised against the 9-aa N-terminal peptide of DEspR; An IgG2b isotype control was used with it; It was AF568-labelled in the FACS and imaging assays; also called 7C5-murine monoclonal antibody; lead mouse prototype anti-human DEspR monoclonal antibody
Molecule B1 displayed a Kd in experiment [1] of around 33 nM.

B2: 6G8G7 murine anti-DEspR monoclonal antibody (antibody, V domains shown)
VH: EVQLQESGGGLVQPGGSLKLSCAASGFDFSRYWMSWVRQAPGKGLEWIGEINPDSSTINYTPSLKDKFIISRDTAKKTLYLQMSKVRSEDTALYYCARHGRGMDYWSQGTSVTVSS
VL: DIVLTQTNQIMSASVGDRVSVTCKASQNVDSNVAWYQQKPGHSPKALIYSASYRYSRVPDRITGSGSGTDFTLTITNVQSKDLADYFCQQYHSYPLLAFGAGTKLELKR
B2: in experiment [1], the Kd was around 33 nM.

B3: 6g8g7-derived IgG4 humanized monoclonal antibody 1 (antibody)
heavy: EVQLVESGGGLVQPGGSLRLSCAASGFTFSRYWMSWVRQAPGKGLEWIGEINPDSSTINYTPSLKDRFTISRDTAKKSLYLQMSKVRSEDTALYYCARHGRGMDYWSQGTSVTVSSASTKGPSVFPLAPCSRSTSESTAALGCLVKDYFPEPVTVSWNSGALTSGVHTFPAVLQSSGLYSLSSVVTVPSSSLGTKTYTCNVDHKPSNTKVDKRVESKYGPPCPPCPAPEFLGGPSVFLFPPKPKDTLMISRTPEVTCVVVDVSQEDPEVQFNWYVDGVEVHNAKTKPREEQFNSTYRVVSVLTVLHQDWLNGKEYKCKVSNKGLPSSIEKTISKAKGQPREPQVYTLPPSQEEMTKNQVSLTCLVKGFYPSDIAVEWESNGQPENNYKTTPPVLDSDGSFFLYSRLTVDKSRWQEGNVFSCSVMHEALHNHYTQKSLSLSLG
light: DIVLTQSPDILSVSLGERATVNCKASQNVDSNVAWYQQKPGHPPKLLIYSASYRYSRVPDRISGSGSGTDFTLTISNLQAEDVAVYYCQQYHSYPLLAFGAGTKLELKRTVAAPSVFIFPPSDEQLKSGTASVVCLLNNFYPREAKVQWKVDNALQSGNSQESVTEQDSKDSTYSLSSTLTLSKADYEKHKVYACEVTHQGLSSPVTKSFNRGEC
notes: Hinge-stabilized (S228P) human IgG4 / kappa, transiently expressed in HEK293; also called 6g8^IgG4 humab1; 6g8IgG4 humab1
Turning to B3, the EC50 in experiment [2] and in experiment [4] was 21.1 nM throughout. Besides, the “Rat Neutrophil survival, IC50” value in experiment [3] stood at 1.16 µg/mL. In addition, in experiment [5], the “Rat activated Neutrophil survival, IC50” value is 1.16 µg/mL.

B4: IgG1 6G8G7 humanized monoclonal antibody (antibody)
heavy: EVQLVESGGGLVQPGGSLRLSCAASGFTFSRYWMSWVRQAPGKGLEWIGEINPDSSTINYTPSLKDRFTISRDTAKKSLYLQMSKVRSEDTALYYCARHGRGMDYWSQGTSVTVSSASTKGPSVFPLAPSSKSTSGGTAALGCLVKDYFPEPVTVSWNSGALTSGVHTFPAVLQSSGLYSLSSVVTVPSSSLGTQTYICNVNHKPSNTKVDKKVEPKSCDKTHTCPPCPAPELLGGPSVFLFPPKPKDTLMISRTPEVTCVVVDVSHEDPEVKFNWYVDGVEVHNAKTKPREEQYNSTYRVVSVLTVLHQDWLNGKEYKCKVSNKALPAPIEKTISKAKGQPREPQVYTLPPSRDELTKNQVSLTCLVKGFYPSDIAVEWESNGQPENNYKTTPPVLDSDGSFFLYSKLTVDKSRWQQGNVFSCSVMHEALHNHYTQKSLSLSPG
light: DIVLTQSPDILSVSLGERATVNCKASQNVDSNVAWYQQKPGHPPKLLIYSASYRYSRVPDRISGSGSGTDFTLTISNLQAEDVAVYYCQQYHSYPLLAFGAGTKLELKRTVAAPSVFIFPPSDEQLKSGTASVVCLLNNFYPREAKVQWKVDNALQSGNSQESVTEQDSKDSTYSLSSTLTLSKADYEKHKVYACEVTHQGLSSPVTKSFNRGEC
With B4, the “Rat Neutrophil survival, IC50” value in experiment [3] was determined as 6.98 µg/mL. Also, the “Rat activated Neutrophil survival, IC50” value in experiment [5] stood at 6.98 µg/mL.
